Two molecules from PMC11974786 (bioRxiv, 2025) can be followed below.

What is called stoichiometry N is a count of units in the complex or per binding partner.

For one assay, the target named is T1, KpOptS (Klebsiella pneumoniae, UniProt A0A2G9LI54).
T1 sequence (A0A2G9LI54 1-119): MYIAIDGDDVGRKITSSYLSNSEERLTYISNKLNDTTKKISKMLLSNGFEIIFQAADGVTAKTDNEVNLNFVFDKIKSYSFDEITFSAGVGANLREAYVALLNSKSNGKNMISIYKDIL
The assay can be described thus: HPLC and LC-MS product analysis. To be noted: 100 μM OptS, 1 mM MnCl2, 10 mM MgSO4, pH 7.4, 100 mM NaCl. It is filed as biochemical.

Assay [1] deals with OptS from Klebsiella pneumoniae strain KP67 (Klebsiella pneumoniae strain KP67). The assay can be described thus: SEC.
The target is the same in assay [2]. The assay can be described thus: SEC. This is another data set of the same source. For orientation: Size exclusion chromatography separates by hydrodynamic size, large species first.
Assay [3] shares this target. Briefly: crystal structure.

Where only a bound is given, the exact number is not on record here.

As to `Nc1ncnc2c1ncn2[C@@H]1O[C@H](COP(=O)(O)OP(=O)(O)OP(=O)(O)O)[C@@H](O)[C@H]1O` [ATP], on KpOptS, the “HPLC and LC-MS product analysis” value is “The largest abundance product observed was derived from ATP”.
“OptS from Klebsiella pneumoniae strain KP67 (enzyme)”: the figures for the stoichiometry N in assay [1], in assay [2] and in assay [3] were 4, above 3 and 4, respectively.
